The NTF2 design screens of Basanta et al. (2020)

Experiment: protease stability score; higher = more stable; yeast display proteolysis, trypsin and chymotrypsin;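 further: relative to predicted unfolded state with 0 unfolded-like and 1 meaning tenfold more protease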

With “DEDEEMSERLSRIIVKALRTGNEHVLRRLVDPDVLSSIDGRKHHGWEDWHEFLKRLGHENVDVQLEHLRFQGNKIELDMILRVGDKTHTQHIHILKVDGRWTMHEVRIK” as the sequence, how does the protease stability score read?
The protease stability score was 1.42.

Which protease stability score does the source give for “TDVEEQVHVAIELHLRTLLTGDEHLSEKLADPHVRILIDGQDYHGRTEWVKWIHTFHKRVDHHQIDVTTLSVQGDKIRIHFELKLHVNGVDLRFHILLIIEKYNGVWIMSEVHIS” here?
Its protease stability score is 1.67.

Which protease stability score does the source give for “SEDEEIQKKFWEEFMKALHTGDWHTLEKLLDPHVRYLVGEKHVHGRKKLEMEIRHLGVTNIEMHLHIESEERQGNKIILNGEFRRRINGVEIKTRAILILIKIDGRWVIDTEFIE” here?
The protease stability score was 2.05.

With “DELEEYLKRLAKEILELMQTGDEDRWMKLADPNVRIDVNGVELHGRETWVERMEDILREIRSEYRIRHVHSQGNWARVDGELDIKVNGRIIRHKTEFIVVTVNGRIREEKFHIR” as the sequence, how does the protease stability score read?
Its protease stability score is 0.335.

Which protease stability score does the source give for “DEKRKVEERLLELIIEIFRTGDWEWYSELADPNVRVHQGEYHKHGREQASKHLLDELRHLGIKHIDERSYDVIDGQVYWHVRIEVGDKERQMHIRVRIVNGVLQHVHIEIH” here?
The protease stability score was 1.17.

With “SDEEESFFTMLELFVEYLHTGDEHEFKKLADPHVRSLYDGVELHGREWFIRKFREMRVKSLHFHHSDIHIINGRARARIDVRLDGEVNGVEDLTETEIRLEVHKVDGQWVFHSVEIHRK” as the sequence, how does the protease stability score read?
Its protease stability score is 1.33.

With “DEYREEARKLMHDTAKHLHTGDEDMTNHYLDPNVKIQINGQEIHGMDKFEHDSRRFKGAKNDVRFELRLIQVIGDKVRIDGELYVRIRVGDKEYSFEVKVDIVVTKVDGVWKIKEIKIE” as the sequence, how does the protease stability score read?
Its protease stability score is 0.806.

Which protease stability score does the source give for “DETEKHILKLAEMLVRDWITGNEENIMELLDPHAKIDIHIDGRYLEFHGRELITRELIRHYEEIRIHYHFRESESVGEKASINMDVEVHIGDKIVRSHTEVILDIVNGRVRNIHIRWK” here?
The protease stability score was 2.23.

Which protease stability score does the source give for “HEENKELEDLLRVWMELVETGDEEELLKLADPDWRLDINGRRIHGRDKVLTWLREHREKLGVDHRHLFLKDVRTVNGRVDANGENEVQVNGKRIVIDIRFHLVVINGRIHMISLRLH” here?
Its protease stability score is 1.15.

Which protease stability score does the source give for “DDEKKHALEVVRKYFRAFLTGDEDESFELMDPRVKVDINGRDIHGWEEYRKWMEEIRIHDHRVKEEHFRVYDGRLIIIIRGELNGEINGRRFEFEFNIIIVVAKVDGQWRTESFKMEIH” here?
The protease stability score was 1.31.

With “DDKDEHSYRVAEDVVEAWLTGDWRWLMDMFDPHVRMDIDIDGVDIHLHGRHELARYILEEHQKYKNITVHIEHIRVQGDFIEINTSVRIDGQRHDRRLIIRIINGKIEEHQIHVR” as the sequence, how does the protease stability score read?
The protease stability score was 1.01.

For “DEEEELLRKLVEELHKALRTGNEHVLRHLIDPHVRIDIDGRELHGREQFVELWKRLVDELRIHDMKIRSIKTQGDFVHSSTELDLEYGDKKFRLTTELDVRSIDGRVKHVSIRYH”, which protease stability score is on record?
Its protease stability score is 1.53.

With “SHDEEQVDRFLKLWSHAVMTGDWKFMYELLDPHTRLVINGKNVHGREEISKFFHDHVSRIKNLKIEVHLNEVRIFDGRAHLDIEVRIHIGDKNHTIHVEIVVEKVDGRWHVHSIHEK” as the sequence, how does the protease stability score read?
The protease stability score was 1.36.

For “SEEDEFVHEMVEILLKMFLTGDFQHFKRLADPHVMFVFNGKRFHGRHWVLDELIRFPNIKFELTHYEFDDINGVVHINIFGQRDVDGKNENVELHFVVEKVDGRWKIHRIIFRLR”, which protease stability score is on record?
The protease stability score was 1.11.

For “DERTEEVKRITEEFREAERTGDWERLLELIDPDVRIEIIINGRRETYHGREDAKRVLEEWYKQFKNITLKLREMRIQGDKTDLEVEVNVNGRRHDIRVHLHIVNGRIKEIRIEVI”, which protease stability score is on record?
The protease stability score was 1.63.

Which protease stability score does the source give for “DEDLKLMLTLTHLWLHAVATGDEDLQTKLADPDVRFIFNGRIIHGMDEWRRFLKELRIKIEDTDHKDSDLYGEKLHIDGHIVIRIHVGEKNERIDTRVHIHVLVINGKLKSVKIETR” here?
Its protease stability score is 2.13.

With “DEDHKRVREMTDILIELLVTGNEDLLLKLMDPHARERIGDWHSHGRESFVKLLQDLLERIKNVRIEIKDMRIRIYNGVAHSHIDGNNIYNGREIKALWILIIEKINGRWIVHSIELETE” as the sequence, how does the protease stability score read?
Its protease stability score is 1.45.

For “DKEEHLVKILIEILHREWETGDEDSISRNADPNTRVDIGDKHFHGREDAMEVLKRMLHQFPNIKFHIEDMRIIGNFVEIDVVINWNGKDVKSHLVFFKINGRWLTRHVEIR”, which protease stability score is on record?
Its protease stability score is 1.32.

With “SEEEEDIRKFLEDHHRAFATGDEKRLTELMDPNVRFDVNGVDRHGRELAVEMLHKQREEMGIDHLETIEMQDHEVYGDYIHLDVEVHIRVNGKRHILKRRILWLKINGRWTIKHEQLR” as the sequence, how does the protease stability score read?
The protease stability score was 0.464.

With “DEHKESLKRAFELWVETVKTGDEQRTEELIDPHVRVVIGDKEIHGMKETSRHILEMRVKSFRLRHYHFVNGRVNILGEIDGEFDGRRRDVDITIHIQKFNGRWLIDELHFG” as the sequence, how does the protease stability score read?
The protease stability score was 2.27.

With “TEEEEEFKRTSHEIFYALHTGNWEILEKMFDPHVRTHINGKDVHGREEATRVMELWIEELGVKHIHIKSEHHDIQGEFVRIHFHIISRVGDKFIEIEIEMEIRKINGRWRFTSIRLDRR” as the sequence, how does the protease stability score read?
Its protease stability score is 1.42.

Which protease stability score does the source give for “REEEEHAEYVIRVWERLLETGDEHEVARLLDPEVRLNIDGVDIHGREDIIRWLKHIRIEIEDSDHKRIEVQGEKIHLDGHRKEVIHVGDKKIRREHRIKLELVWIDGKITSLNVVLH” here?
The protease stability score was 1.24.

For “TEEERDSKLAFQLLFKTLETGDEREHREFIDPNMRLHVGNYEFIGWERAVHIMRRIDHVQRIEIEDTYTIGNKVTIDGTDYIEVGDFTERIRSRWIILKVDGKWFIHHVELR”, which protease stability score is on record?
The protease stability score was 0.679.

For “DKRDEKMERFLRLMIEFYTTGNEDEFRKLADPDVRTIVGDKHAHGWEESEKVFRILIDHMRIRRIHIEHITVQGNWAHSITRLDGEVNGVRVHVRTEVVIIVYNGRVETIDLRWE”, which protease stability score is on record?
The protease stability score was 1.28.

For “DELEKHLIHLAEIFIHNKLTGDEEELQRFMDPSVRTIVGEFHYHGRELVTEWLRREWEEMRIHEIHITHVRFQGDKVIIEGRLDIEVNGRRVDTHALIILVVVDGVMKSVKFEII”, which protease stability score is on record?
Its protease stability score is 1.23.
